The MegaScale stability set (Tsuboyama et al. 2023)

B1: 5KPH (parent)
chain: EEKRQVKQVAKEKLLEQSPNSKVQVRRVQKQGNTIRVELELRTNGKKENYTVEVERQGNTWTVKRITRT

Variants of: B1
Test: folding stability dG (cDNA display proteolysis); higher = more stable
Details: PBS, room temperature

Variant	folding stability dG
EEKRQVKQVAKEKLLEQSPNSKVQVRRVQKQGNTIRVELELRTNGKKENYTVEVFRQGNTWTVKRITRT [E55F]	3.92 kcal/mol
EEKRQVKQVAKEKLLEQSPNSKVQVRRVQKQGNTIRVELELRTNGKKENYTVEVYRQGNTWTVKRITRT [E55Y]	3.92 kcal/mol
EEKRQVKQVAKEKLLEQSPNSKVQVRRVQKQGNTIRVELELRTNGKKENYTVEVGRQGNTWTVKRITRT [E55G]	3.19 kcal/mol
EEKRQVKQVAKEKLLEQSPNSKVQVRRVQKQGNTIRVELELRTNGKKENYTVEVMRQGNTWTVKRITRT [E55M]	3.88 kcal/mol
EEKRQVKQVAKEKLLEQSPNSKVQVRRVQKQGNTIRVELELRTNGKKENYTVEVTRQGNTWTVKRITRT [E55T]	3.7 kcal/mol
EEKRQVKQVAKEKLLEQSPNSKVQVRRVQKQGNTIRVELELRTNGKKENYTVEVQRQGNTWTVKRITRT [E55Q]	3.7 kcal/mol
EEKRQVKQVAKEKLLEQSPNSKVQVRRVQKQGNTIRVELELRTNGKKENYTVEVWRQGNTWTVKRITRT [E55W]	3.92 kcal/mol
EEKRQVKQVAKEKLLEQSPNSKVQVRRVQKQGNTIRVELELRTNGKKENYTVEVHRQGNTWTVKRITRT [E55H]	3.65 kcal/mol
EEKRQVKQVAKEKLLEQSPNSKVQVRRVQKQGNTIRVELELRTNGKKENYTVEVIRQGNTWTVKRITRT [E55I]	4.11 kcal/mol
EEKRQVKQVAKEKLLEQSPNSKVQVRRVQKQGNTIRVELELRTNGKKENYTVEVLRQGNTWTVKRITRT [E55L]	3.54 kcal/mol
EEKRQVKQVAKEKLLEQSPNSKVQVRRVQKQGNTIRVELELRTNGKKENYTVEVSRQGNTWTVKRITRT [E55S]	3.56 kcal/mol
EEKRQVKQVAKEKLLEQSPNSKVQVRRVQKQGNTIRVELELRTNGKKENYTVEVPRQGNTWTVKRITRT [E55P]	-0.38 kcal/mol
EEKRQVKQVAKEKLLEQSPNSKVQVRRVQKQGNTIRVELELRTNGKKENYTVEVKRQGNTWTVKRITRT [E55K]	3.19 kcal/mol
EEKRQVKQVAKEKLLEQSPNSKVQVRRVQKQGNTIRVELELRTNGKKENYTVEVRRQGNTWTVKRITRT [E55R]	3.1 kcal/mol
EEKRQVKQVAKEKLLEQSPNSKVQVRRVQKQGNTIRVELELRTNGKKENYTVEVNRQGNTWTVKRITRT [E55N]	2.91 kcal/mol
EEKRQVKQVAKEKLLEQSPNSKVQVRRVQKQGNTIRVELELRTNGKKENYTVEVVRQGNTWTVKRITRT [E55V]	4.08 kcal/mol
EEKRQVKQVAKEKLLEQSPNSKVQVRRVQKQGNTIRVELELRTNGKKENYTVEVERQWNTWTVKRITRT [G58W]	3 kcal/mol
EEKRQVKQVAKEKLLEQSPNSKVQVRRVQKQGNTIRVELELRTNGKKENYTVEVERQANTWTVKRITRT [G58A]	3.33 kcal/mol
EEKRQVKQVAKEKLLEQSPNSKVQVRRVQKQGNTIRVELELRTNGKKENYTVEVERQDNTWTVKRITRT [G58D]	3.75 kcal/mol
EEKRQVKQVAKEKLLEQSPNSKVQVRRVQKQGNTIRVELELRTNGKKENYTVEVERQLNTWTVKRITRT [G58L]	3.33 kcal/mol
EEKRQVKQVAKEKLLEQSPNSKVQVRRVQKQGNTIRVELELRTNGKKENYTVEVERQRNTWTVKRITRT [G58R]	2.97 kcal/mol
EEKRQVKQVAKEKLLEQSPNSKVQVRRVQKQGNTIRVELELRTNGKKENYTVEVERQHNTWTVKRITRT [G58H]	3.4 kcal/mol
EEKRQVKQVAKEKLLEQSPNSKVQVRRVQKQGNTIRVELELRTNGKKENYTVEVERQFNTWTVKRITRT [G58F]	3.43 kcal/mol
EEKRQVKQVAKEKLLEQSPNSKVQVRRVQKQGNTIRVELELRTNGKKENYTVEVERQINTWTVKRITRT [G58I]	2.86 kcal/mol
EEKRQVKQVAKEKLLEQSPNSKVQVRRVQKQGNTIRVELELRTNGKKENYTVEVERQQNTWTVKRITRT [G58Q]	3.5 kcal/mol
EEKRQVKQVAKEKLLEQSPNSKVQVRRVQKQGNTIRVELELRTNGKKENYTVEVERQSNTWTVKRITRT [G58S]	3.36 kcal/mol

Variant	folding stability dG
EEKRQVKQVAKEKLLEQSPNSKVQVRRVQKQGNTIRVELELRTNGKKENYTVEVERQPNTWTVKRITRT [G58P]	2.25 kcal/mol
EEKRQVKQVAKEKLLEQSPNSKVQVRRVQKQGNTIRVELELRTNGKKENYTVEVERQCNTWTVKRITRT [G58C]	3.16 kcal/mol
EEKRQVKQVAKEKLLEQSPNSKVQVRRVQKQGNTIRVELELRTNGKKENYTVEVERQVNTWTVKRITRT [G58V]	3.02 kcal/mol
EEKRQVKQVAKEKLLEQSPNSKVQVRRVQKQGNTIRVELELRTNGKKENYTVEVERQENTWTVKRITRT [G58E]	3.7 kcal/mol
EEKRQVKQVAKEKLLEQSPNSKVQVRRVQKQGNTIRVELELRTNGKKENYTVEVERQYNTWTVKRITRT [G58Y]	3.15 kcal/mol
EEKRQVKQVAKEKLLEQSPNSKVQVRRVQKQGNTIRVELELRTNGKKENYTVEVERQTNTWTVKRITRT [G58T]	2.84 kcal/mol
EEKRQVKQVAKEKLLEQSPNSKVQVRRVQKQGNTIRVELELRTNGKKENYTVEVERQNNTWTVKRITRT [G58N]	3.7 kcal/mol
EEKRQVKQVAKEKLLEQSPNSKVQVRRVQKQGNTIRVELELRTNGKKENYTVEVERQMNTWTVKRITRT [G58M]	3.24 kcal/mol
EEKRQVKQVAKEKLLEQSPNSKVQVRRVQKQGNTIRVELELRTNGKKENYTVEVERQKNTWTVKRITRT [G58K]	3.4 kcal/mol
EEKRQVKQVAKEKLLEQSPNSKVQVRRVQKQGNTIRVELELRTNGKKENYTVEVEGQGNTWTVKRITRT [R56G]	3.19 kcal/mol
EEKRQVKQVAKEKLLEQSPNSKVQVRRVQKQGNTIRVELELRTNGKKENYTVEVEIQGNTWTVKRITRT [R56I]	3.29 kcal/mol
EEKRQVKQVAKEKLLEQSPNSKVQVRRVQKQGNTIRVELELRTNGKKENYTVEVEWQGNTWTVKRITRT [R56W]	4.17 kcal/mol
EEKRQVKQVAKEKLLEQSPNSKVQVRRVQKQGNTIRVELELRTNGKKENYTVEVELQGNTWTVKRITRT [R56L]	3.84 kcal/mol
EEKRQVKQVAKEKLLEQSPNSKVQVRRVQKQGNTIRVELELRTNGKKENYTVEVEVQGNTWTVKRITRT [R56V]	3.24 kcal/mol
EEKRQVKQVAKEKLLEQSPNSKVQVRRVQKQGNTIRVELELRTNGKKENYTVEVETQGNTWTVKRITRT [R56T]	2.83 kcal/mol
EEKRQVKQVAKEKLLEQSPNSKVQVRRVQKQGNTIRVELELRTNGKKENYTVEVEPQGNTWTVKRITRT [R56P]	2.93 kcal/mol
EEKRQVKQVAKEKLLEQSPNSKVQVRRVQKQGNTIRVELELRTNGKKENYTVEVEFQGNTWTVKRITRT [R56F]	3.83 kcal/mol
EEKRQVKQVAKEKLLEQSPNSKVQVRRVQKQGNTIRVELELRTNGKKENYTVEVEQQGNTWTVKRITRT [R56Q]	3.51 kcal/mol
EEKRQVKQVAKEKLLEQSPNSKVQVRRVQKQGNTIRVELELRTNGKKENYTVEVECQGNTWTVKRITRT [R56C]	3.59 kcal/mol
EEKRQVKQVAKEKLLEQSPNSKVQVRRVQKQGNTIRVELELRTNGKKENYTVEVEYQGNTWTVKRITRT [R56Y]	3.72 kcal/mol
EEKRQVKQVAKEKLLEQSPNSKVQVRRVQKQGNTIRVELELRTNGKKENYTVEVEMQGNTWTVKRITRT [R56M]	3.61 kcal/mol
EEKRQVKQVAKEKLLEQSPNSKVQVRRVQKQGNTIRVELELRTNGKKENYTVEVEHQGNTWTVKRITRT [R56H]	3.38 kcal/mol
EEKRQVKQVAKEKLLEQSPNSKVQVRRVQKQGNTIRVELELRTNGKKENYTVEVEDQGNTWTVKRITRT [R56D]	2.42 kcal/mol
EEKRQVKQVAKEKLLEQSPNSKVQVRRVQKQGNTIRVELELRTNGKKENYTVEVEKQGNTWTVKRITRT [R56K]	4.11 kcal/mol
EEKRQVKQVAKEKLLEQSPNSKVQVRRVQKQGNTIRVELELRTNGKKENYTVEVESQGNTWTVKRITRT [R56S]	3.26 kcal/mol
EEKRQVKQVAKEKLLEQSPNSKVQVRRVQKQGNTIRVELELRTNGKKENYTVEVEAQGNTWTVKRITRT [R56A]	3.25 kcal/mol

Variant	folding stability dG
EEKRQVKQVAKEKLLEQSPNSKVQVRRVQKQGNTIRVELELRTNGKKENYTVEVEEQGNTWTVKRITRT [R56E]	2.88 kcal/mol
EEKRQVKQVAKEKLLEQSPNSKVQVRRVQKQGNTIRVELELRTNGKKENYTVEVENQGNTWTVKRITRT [R56N]	2.97 kcal/mol
EEKRQVKQVAKEKLLEQSPNSKVQVRRVQKQGNTIRVELELRTNGKKENYTVEVERNGNTWTVKRITRT [Q57N]	3.9 kcal/mol
EEKRQVKQVAKEKLLEQSPNSKVQVRRVQKQGNTIRVELELRTNGKKENYTVEVERSGNTWTVKRITRT [Q57S]	3.89 kcal/mol
EEKRQVKQVAKEKLLEQSPNSKVQVRRVQKQGNTIRVELELRTNGKKENYTVEVERGGNTWTVKRITRT [Q57G]	3.16 kcal/mol
EEKRQVKQVAKEKLLEQSPNSKVQVRRVQKQGNTIRVELELRTNGKKENYTVEVERTGNTWTVKRITRT [Q57T]	4.03 kcal/mol
EEKRQVKQVAKEKLLEQSPNSKVQVRRVQKQGNTIRVELELRTNGKKENYTVEVERHGNTWTVKRITRT [Q57H]	3.82 kcal/mol
EEKRQVKQVAKEKLLEQSPNSKVQVRRVQKQGNTIRVELELRTNGKKENYTVEVERVGNTWTVKRITRT [Q57V]	4.18 kcal/mol
EEKRQVKQVAKEKLLEQSPNSKVQVRRVQKQGNTIRVELELRTNGKKENYTVEVERCGNTWTVKRITRT [Q57C]	3.53 kcal/mol
EEKRQVKQVAKEKLLEQSPNSKVQVRRVQKQGNTIRVELELRTNGKKENYTVEVERKGNTWTVKRITRT [Q57K]	3.83 kcal/mol
EEKRQVKQVAKEKLLEQSPNSKVQVRRVQKQGNTIRVELELRTNGKKENYTVEVEREGNTWTVKRITRT [Q57E]	4.17 kcal/mol
EEKRQVKQVAKEKLLEQSPNSKVQVRRVQKQGNTIRVELELRTNGKKENYTVEVERPGNTWTVKRITRT [Q57P]	2.19 kcal/mol
EEKRQVKQVAKEKLLEQSPNSKVQVRRVQKQGNTIRVELELRTNGKKENYTVEVERMGNTWTVKRITRT [Q57M]	3.89 kcal/mol
EEKRQVKQVAKEKLLEQSPNSKVQVRRVQKQGNTIRVELELRTNGKKENYTVEVERWGNTWTVKRITRT [Q57W]	3.83 kcal/mol
EEKRQVKQVAKEKLLEQSPNSKVQVRRVQKQGNTIRVELELRTNGKKENYTVEVERIGNTWTVKRITRT [Q57I]	4.25 kcal/mol
EEKRQVKQVAKEKLLEQSPNSKVQVRRVQKQGNTIRVELELRTNGKKENYTVEVERAGNTWTVKRITRT [Q57A]	3.81 kcal/mol
EEKRQVKQVAKEKLLEQSPNSKVQVRRVQKQGNTIRVELELRTNGKKENYTVEVERRGNTWTVKRITRT [Q57R]	3.73 kcal/mol
EEKRQVKQVAKEKLLEQSPNSKVQVRRVQKQGNTIRVELELRTNGKKENYTVEVERFGNTWTVKRITRT [Q57F]	3.88 kcal/mol
EEKRQVKQVAKEKLLEQSPNSKVQVRRVQKQGNTIRVELELRTNGKKENYTVEVERDGNTWTVKRITRT [Q57D]	4.07 kcal/mol
EEKRQVKQVAKEKLLEQSPNSKVQVRRVQKQGNTIRVELELRTNGKKENYTVEVERLGNTWTVKRITRT [Q57L]	3.96 kcal/mol
EEKRQVKQVAKEKLLEQSPNSKVQVRRVQKQGNTIRVELELRTNGKKENYTVEVERYGNTWTVKRITRT [Q57Y]	4.03 kcal/mol
EEKRQVKQVAKEKLLEQSPNSKVQVRRVQKQGNTIRVELELRTNGKKENYTVEVERQGCTWTVKRITRT [N59C]	3.22 kcal/mol
EEKRQVKQVAKEKLLEQSPNSKVQVRRVQKQGNTIRVELELRTNGKKENYTVEVERQGETWTVKRITRT [N59E]	3.92 kcal/mol
EEKRQVKQVAKEKLLEQSPNSKVQVRRVQKQGNTIRVELELRTNGKKENYTVEVERQGATWTVKRITRT [N59A]	3.69 kcal/mol
EEKRQVKQVAKEKLLEQSPNSKVQVRRVQKQGNTIRVELELRTNGKKENYTVEVERQGFTWTVKRITRT [N59F]	3.54 kcal/mol
EEKRQVKQVAKEKLLEQSPNSKVQVRRVQKQGNTIRVELELRTNGKKENYTVEVERQGDTWTVKRITRT [N59D]	4.01 kcal/mol
